Like-named read-outs stand apart in the source and are kept apart here. Positions of bridges follow the written chain, without caps; N, C: chain ends. Residues, ends and D or L forms follow the SMILES beside them. *: point of attachment. X1 = CC(CCC(C)C(=O)*)C(=O)OCC(=O)[C@@]1(O)[C@H](C)C[C@H]2[C@@H]3CCC4=CC(=O)C=C[C@]4(C)[C@@]3(F)[C@@H](O)C[C@@]21C
Experiments:
[1] = test system: CIA rats
Protocol: Arthritis was induced in 9-week-old female Lewis rats (Envigo or Charles River Laboratories) by intradermal injection while anesthetized of 400 ug bovine type II collagen (Chondrex Inc, Redmond Wash.) in 2 adjacent 200 ul (1 mg/ml) doses on day 0. Collagen is prepared for injection by dissolving at 2 mg/ml in 0.01N glacial acetic acid in sterile water and rocking at 4° C. overnight then emulsifying in Freund's incomplete adjuvant (IFA, Sigma Aldrich). To emulsify, equal volumes of collagen solution and IFA are drawn up into separate syringes, which are joined by a 3-way stopcock. While on ice, the collagen and IFA are mixed by pressing between the two syringes rapidly for 10 minutes. Quality of the emulsification is tested after 10 minutes of mixing by dropping a small amount of mixture in water. A properly emulsified solution will remain as a discrete droplet and not disperse in the water. On day 7, rats are challenged with a second intradermal injection of 100 ug of collagen in 100 ul, 1 mg/ml, collagen in IFA solution prepared fresh. Body weight and ankle diameter measurements are recorded daily from day 7 through the end of the study. Ankle diameter was measure by a single researcher using a Fowler Digitrix 2 micrometer. Three measurements of each ankle were taken of the lateral dimension at the tarsus of lightly anesthetized rats. The reported ankle diameter measurement is the mean of the three measurements.
Arthritis was induced as described in four cohorts of 9-week-old female Lewis rats. Rats were randomly placed in treatment groups, balancing compound and dose groups across cohorts. […] Rats were dosed by tail vein injection on days 11 and 12 and euthanized on day 13 by CO2 asphyxiation. Immediately after cessation of respiratory movement, blood was collected by cardiac puncture, synovial fluid was collected from both knees, one hind limb was fixed in formalin and the alternate ankle was frozen on dry ice. Thymus, spleen, liver, and kidney weights were recorded.
CIA Response study design.
The aim of the study was to test the 4 conjugates with various linkers at two different doses in vivo in CIA rats to assess the following: ability to deliver sufficient dexamethasone to the joint to show functionality and potential therapeutic effect in the disease model.
CIA was induced in female Lewis rats (as described above, see EXAMPLE 21). Body weight and ankle joint diameters were measured on day 0 and then daily from day 7 until euthanasia. […] At euthanasia, synovial fluid was collected from both knees, one hind limb was fixed in formalin and the alternate ankle was frozen on dry ice. Thymus, spleen, liver, and kidney weights were recorded. Blood samples were submitted for CBC/Chemistry analysis, and the remaining plasma was frozen.

[2] = in vivo
Description: Dexamethasone alone has low water solubility. […] A secondary objective was to measure free Dex levels in knee joints.
All samples were collected at euthanasia. Free Dex was extracted from plasma samples and quantified by LC/MS. […] To measure the total Dex concentration (free Dex released in vivo+Dex associated with intact peptide-drug conjugate) in plasma of rats treated with Peptide(SEQ ID NO: 105)-DMA-Dex, a separate plasma sample was subjected to forced hydrolysis followed by extraction of free Dex. Dexamethasone extraction was achieved by acetonitrile precipitation from plasma samples. The forced hydrolysis protocol involved addition of 10 U porcine esterase to the plasma and incubation for 22 h at 37° C. Total white blood cell counts, absolute lymphocyte counts, and thymus and spleen weights were measured to assess systemic markers of Dex exposure over the time-course.
In order to quantify the concentration of free Dex in knee joints, knee joints were harvested, the joint capsule was opened, and the knee joints were then shaken in ethyl acetate for 12 h at 4° C. The extract was centrifuged and the supernatant was dried under nitrogen in a 96 well plate. The samples were then reconstituted and analyzed by LC/MS using the same protocol developed for quantifying free Dex in plasma.
An indirect estimate of intact peptide-drug conjugate concentration at each time-point can be made by subtracting the free Dex concentration (from direct extraction) from the total Dex concentration (from forced hydrolysis). […] Systemic exposure to Dex was assessed by multiple parameters: total white blood cell (WBC) count; absolute lymphocyte count; thymus weight; and spleen weight (FIG. 15).

[3] = test system: CIA rats; assay type: in vivo
Protocol: Ankle diameter measurements were recorded daily starting on induction day 9 and continuing for the duration of the study. […] Each treatment was administered on the day of enrollment (study day 0) and repeated daily for 7 days (study day 6). Rats were euthanized 3 h after the final dose and blood and organs were collected for testing.

[4] = any time-point to 24 h, single IV dose 0.2 mg/kg
[5] = 0.05 mg/kg daily for 7 days, study day 6

## CC[C@H](C)[C@@H]1NC(=O)[C@@H]2CSSC[C@H](NC(=O)[C@H](CCCNC(=N)N)NC(=O)[C@@H](NC(=O)[C@H](CC(N)=O)NC(=O)[C@@H](NC(=O)[C@@H]3CCCN3C(=O)[C@@H](NC(=O)CNC(=O)[C@H](CO)NC(=O)CNC(=O)C(C)CCC(C)C(=O)OCC(=O)[C@@]3(O)[C@H](C)C[C@H]4[C@@H]5CCC6=CC(=O)C=C[C@]6(C)[C@@]5(F)[C@@H](O)C[C@@]43C)C(C)C)[C@@H](C)CC)C(C)C)C(=O)N[C@@H](CCCNC(=N)N)C(=O)NCC(=O)N[C@@H](CO)C(=O)N[C@@H](CCCNC(=N)N)C(=O)N[C@@H](CC(=O)O)C(=O)N[C@H]3CSSC[C@H](NC(=O)[C@H](CCCNC(=N)N)NC(=O)[C@H](CO)NC(=O)[C@H](CC(N)=O)NC1=O)C(=O)N[C@@H](Cc1c[nH]cn1)C(=O)N[C@H](C(=O)N[C@H](C(=O)N1CCC[C@H]1C(=O)O)[C@@H](C)O)CSSC[C@H](NC(=O)[C@@H]1CCCN1C(=O)[C@H](CC(=O)O)NC(=O)[C@H](CC(C)C)NC3=O)C(=O)N[C@@H](CCCNC(=N)N)C(=O)N[C@@H](CCCNC(=N)N)C(=O)N[C@@H](C)C(=O)NCC(=O)N[C@@H](CCSC)C(=O)N[C@@H](CCCNC(=N)N)C(=O)N[C@@H](Cc1ccccc1)C(=O)NCC(=O)N[C@@H](CCCNC(=N)N)C(=O)N2 (some centres unmarked) [Compound 27, peptide(SEQ ID NO: 105)-[dimethyladipic acid]-Dex] (X1-GSGVPINVRCRGSRDCLDPCRRAGMRFGRCINSRCHCTP-OH; disulfide 10-30, 16-35, 20-37 (inferred); C-terminus assumed)
[1]; 0.2 mg/kg and 0.5 mg/kg Dex equivalents IV days 11 and 12
  ankle swelling over time as compared to vehicle: reduction in ankle swelling
[1]; 0.2 mg/kg and 0.5 mg/kg dose
  spleen weight: reduction
  thymus weight: reduction
  total body weight: reduction
[1]; 0.2 mg/kg dose
  change in median ankle diameter between day 11 and day 13 as compared to vehicle: statistically significant reduction in ankle diameter
  difference from Dex in change in ankle diameter: no statistically significant difference
[1]; 1 mg/kg Dex equivalents IV, some rats
  mortality and tolerability: died overnight
[2]; 2 h after single IV dose 0.2 mg/kg
  WBC and lymphocyte cell counts as compared to DexSP: higher
[2]; 12 h after single IV dose 0.2 mg/kg
  lymphocyte counts as compared to DexSP: lower
[2]; [4]
  Thymus weight, difference between DexSP and conjugate: not significantly different
  spleen weight, difference between DexSP and conjugate: not significantly different
[2]; female, Lewis, rat, in vivo, iv, 0.2 mg/kg
  half-life: ~90 min
[2]; plasma, total Dex minus free Dex, single IV dose 0.2 mg/kg
  detectability of intact peptide-drug conjugate in plasma: not detectable after 6 h
[3]; 0.05 mg/kg
  plasma lymphocyte counts as compared to DexSP: significantly higher
  spleen weight as compared to DexSP: significantly higher
[3]; [5]
  plasma lymphocyte counts as compared to vehicle: significantly reduced
  spleen weight as compared to vehicle: significantly reduced
  thymus weight as compared to vehicle: significantly reduced
[3]; highest dose of 0.05 mg/kg daily for 7 days
  ankle inflammation: effective at reducing ankle inflammation
[3]; lower doses (0.001, 0.005, 0.01 mg/kg) daily for 7 days
  ankle inflammation: indistinguishable from vehicle

Source: patent US20210252159A1, “CONJUGATES OF CARTILAGE-HOMING PEPTIDES” (priority 2018, published 2021)
